B1: KRT33B (parent)
chain: PAVDLNQVLNETRNQYEALVETNR
B2: MATN2 (parent)
chain: FIVDILQFLDIGPDVTRVGLLQYG

Variants of: B1
Assay: protein stability index of a GFP-peptide fusion (GPS, HEK-293T) (PSI 1-6); higher = more stable
Settings: c terminus: a fixed tail appended
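Also: lentivirally expressed fusions sorted by FACS into six bins by GFP to DsRed ratio, PSI derived from sequencing read proportions per bin multiplied by bin number.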

Variant | protein stability index
PAVDLNQVLNETRNQYEAVVETNR | 4.85
PAVDLNQVLNETRNQYEAWVETNR | 4.25
PAVDLNQVLNETRNQYEAYVETNR | 4.61
PAVDLNQVLNETRNQYEALAETNR | 2.74
PAVDLNQVLNETRNQYEALCETNR | 4.06
PAVDLNQVLNETRNQYEALDETNR | 5.39
PAVDLNQVLNETRNQYEALEETNR | 3.52
PAVDLNQVLNETRNQYEALFETNR | 4.09
PAVDLNQVLNETRNQYEALGETNR | 4.49
PAVDLNQVLNETRNQYEALHETNR | 4.92
PAVDLNQVLNETRNQYEALIETNR | 4.39
PAVDLNQVLNETRNQYEALKETNR | 4.24
PAVDLNQVLNETRNQYEALLETNR | 3.88
PAVDLNQVLNETRNQYEALMETNR | 2.8
PAVDLNQVLNETRNQYEALNETNR | 4.45
PAVDLNQVLNETRNQYEALPETNR | 4.34
PAVDLNQVLNETRNQYEALQETNR | 4.94
PAVDLNQVLNETRNQYEALRETNR | 4.43
PAVDLNQVLNETRNQYEALSETNR | 4.43
PAVDLNQVLNETRNQYEALTETNR | 4.95
PAVDLNQVLNETRNQYEALWETNR | 3.62
PAVDLNQVLNETRNQYEALYETNR | 4.22
PAVDLNQVLNETRNQYEALVATNR | 3.85
PAVDLNQVLNETRNQYEALVCTNR | 3.58
PAVDLNQVLNETRNQYEALVDTNR | 3.69

Variant | protein stability index
PAVDLNQVLNETRNQYEALVFTNR | 3.23
PAVDLNQVLNETRNQYEALVGTNR | 4.22
PAVDLNQVLNETRNQYEALVHTNR | 4.19
PAVDLNQVLNETRNQYEALVITNR | 3.71
PAVDLNQVLNETRNQYEALVKTNR | 4.2
PAVDLNQVLNETRNQYEALVLTNR | 3.37
PAVDLNQVLNETRNQYEALVMTNR | 3.67
PAVDLNQVLNETRNQYEALVNTNR | 4.14
PAVDLNQVLNETRNQYEALVPTNR | 4.18
PAVDLNQVLNETRNQYEALVQTNR | 3.95
PAVDLNQVLNETRNQYEALVRTNR | 4.04
PAVDLNQVLNETRNQYEALVSTNR | 4.05
PAVDLNQVLNETRNQYEALVTTNR | 4.06
PAVDLNQVLNETRNQYEALVVTNR | 3.54
PAVDLNQVLNETRNQYEALVWTNR | 2.89
PAVDLNQVLNETRNQYEALVYTNR | 3.23
PAVDLNQVLNETRNQYEALVEANR | 3.94
PAVDLNQVLNETRNQYEALVECNR | 3.78
PAVDLNQVLNETRNQYEALVEDNR | 4.8
PAVDLNQVLNETRNQYEALVEENR | 4.05
PAVDLNQVLNETRNQYEALVEFNR | 3.61
PAVDLNQVLNETRNQYEALVEGNR | 4.73
PAVDLNQVLNETRNQYEALVEHNR | 3.98
PAVDLNQVLNETRNQYEALVEINR | 3.02
PAVDLNQVLNETRNQYEALVEKNR | 3.7

Variant | protein stability index
PAVDLNQVLNETRNQYEALVELNR | 2.23
PAVDLNQVLNETRNQYEALVEMNR | 3.33
PAVDLNQVLNETRNQYEALVENNR | 4.5
PAVDLNQVLNETRNQYEALVEPNR | 4.65
PAVDLNQVLNETRNQYEALVEQNR | 3.94
PAVDLNQVLNETRNQYEALVERNR | 4.02
PAVDLNQVLNETRNQYEALVESNR | 4.43
PAVDLNQVLNETRNQYEALVEVNR | 1.57
PAVDLNQVLNETRNQYEALVEWNR | 3.88
PAVDLNQVLNETRNQYEALVEYNR | 4.57
PAVDLNQVLNETRNQYEALVETAR | 4.3
PAVDLNQVLNETRNQYEALVETCR | 4.03
PAVDLNQVLNETRNQYEALVETDR | 5.06
PAVDLNQVLNETRNQYEALVETER | 4.51
PAVDLNQVLNETRNQYEALVETFR | 2.58
PAVDLNQVLNETRNQYEALVETGR | 4.07
PAVDLNQVLNETRNQYEALVETHR | 4.35
PAVDLNQVLNETRNQYEALVETIR | 3.24
PAVDLNQVLNETRNQYEALVETKR | 4.54
PAVDLNQVLNETRNQYEALVETLR | 3.06
PAVDLNQVLNETRNQYEALVETMR | 3.29
PAVDLNQVLNETRNQYEALVETPR | 4.54
PAVDLNQVLNETRNQYEALVETQR | 4.43
PAVDLNQVLNETRNQYEALVETRR | 4.31
PAVDLNQVLNETRNQYEALVETSR | 4.25

Variant | protein stability index
PAVDLNQVLNETRNQYEALVETTR | 4.46
PAVDLNQVLNETRNQYEALVETVR | 3.27
PAVDLNQVLNETRNQYEALVETWR | 3.36
PAVDLNQVLNETRNQYEALVETYR | 3.71
PAVDLNQVLNETRNQYEALVETNA | 4
PAVDLNQVLNETRNQYEALVETNC | 2.43
PAVDLNQVLNETRNQYEALVETND | 5.15
PAVDLNQVLNETRNQYEALVETNE | 4.13
PAVDLNQVLNETRNQYEALVETNF | 3
PAVDLNQVLNETRNQYEALVETNG | 4.72
PAVDLNQVLNETRNQYEALVETNH | 4.24
PAVDLNQVLNETRNQYEALVETNI | 2.59
PAVDLNQVLNETRNQYEALVETNK | 3.97
PAVDLNQVLNETRNQYEALVETNL | 2.54
PAVDLNQVLNETRNQYEALVETNM | 2.16
PAVDLNQVLNETRNQYEALVETNN | 4.16
PAVDLNQVLNETRNQYEALVETNP | 4.94
PAVDLNQVLNETRNQYEALVETNQ | 4.16
PAVDLNQVLNETRNQYEALVETNS | 4.15
PAVDLNQVLNETRNQYEALVETNT | 3.87
PAVDLNQVLNETRNQYEALVETNV | 1.45
PAVDLNQVLNETRNQYEALVETNW | 3.46
PAVDLNQVLNETRNQYEALVETNY | 2.83

Variants of: B2
Assay: as above
Settings: c terminus: a fixed tail appended

Variant | protein stability index
AIVDILQFLDIGPDVTRVGLLQYG | 2.61
EIVDILQFLDIGPDVTRVGLLQYG | 2.04
KIVDILQFLDIGPDVTRVGLLQYG | 2.46
NIVDILQFLDIGPDVTRVGLLQYG | 2.54
PIVDILQFLDIGPDVTRVGLLQYG | 1.15
QIVDILQFLDIGPDVTRVGLLQYG | 2.03
VIVDILQFLDIGPDVTRVGLLQYG | 1.05
WIVDILQFLDIGPDVTRVGLLQYG | 2.01
YIVDILQFLDIGPDVTRVGLLQYG | 2.36
FGVDILQFLDIGPDVTRVGLLQYG | 3.67
FHVDILQFLDIGPDVTRVGLLQYG | 3.01
FKVDILQFLDIGPDVTRVGLLQYG | 2.88
FLVDILQFLDIGPDVTRVGLLQYG | 1.44
FRVDILQFLDIGPDVTRVGLLQYG | 2.35
FTVDILQFLDIGPDVTRVGLLQYG | 1.4
FYVDILQFLDIGPDVTRVGLLQYG | 3.07
FIDDILQFLDIGPDVTRVGLLQYG | 3.75
FIHDILQFLDIGPDVTRVGLLQYG | 4.66
FIKDILQFLDIGPDVTRVGLLQYG | 2.6
FINDILQFLDIGPDVTRVGLLQYG | 3.33
FIPDILQFLDIGPDVTRVGLLQYG | 2.84
FIWDILQFLDIGPDVTRVGLLQYG | 3.32
FIYDILQFLDIGPDVTRVGLLQYG | 2.5

Variant | protein stability index
FIVAILQFLDIGPDVTRVGLLQYG | 2.58
FIVCILQFLDIGPDVTRVGLLQYG | 2.67
FIVEILQFLDIGPDVTRVGLLQYG | 2.88
FIVHILQFLDIGPDVTRVGLLQYG | 4.41
FIVKILQFLDIGPDVTRVGLLQYG | 2.12
FIVLILQFLDIGPDVTRVGLLQYG | 2.53
FIVPILQFLDIGPDVTRVGLLQYG | 5.01
FIVQILQFLDIGPDVTRVGLLQYG | 2.72
FIVVILQFLDIGPDVTRVGLLQYG | 2.77
FIVYILQFLDIGPDVTRVGLLQYG | 2.58
FIVDALQFLDIGPDVTRVGLLQYG | 1.44
FIVDDLQFLDIGPDVTRVGLLQYG | 3.18
FIVDELQFLDIGPDVTRVGLLQYG | 3.96
FIVDFLQFLDIGPDVTRVGLLQYG | 3.88
FIVDLLQFLDIGPDVTRVGLLQYG | 2.26
FIVDNLQFLDIGPDVTRVGLLQYG | 2.12
FIVDQLQFLDIGPDVTRVGLLQYG | 1.81
FIVDVLQFLDIGPDVTRVGLLQYG | 3.23
FIVDYLQFLDIGPDVTRVGLLQYG | 3.16
FIVDIAQFLDIGPDVTRVGLLQYG | 3.92
FIVDIFQFLDIGPDVTRVGLLQYG | 2.17
FIVDIHQFLDIGPDVTRVGLLQYG | 3.78
FIVDIIQFLDIGPDVTRVGLLQYG | 2.56

Variant | protein stability index
FIVDIPQFLDIGPDVTRVGLLQYG | 1.3
FIVDIRQFLDIGPDVTRVGLLQYG | 3.41
FIVDIWQFLDIGPDVTRVGLLQYG | 3.3
FIVDIYQFLDIGPDVTRVGLLQYG | 2.87
FIVDILAFLDIGPDVTRVGLLQYG | 3.4
FIVDILCFLDIGPDVTRVGLLQYG | 2.24
FIVDILDFLDIGPDVTRVGLLQYG | 3.01
FIVDILEFLDIGPDVTRVGLLQYG | 3.38
FIVDILHFLDIGPDVTRVGLLQYG | 1.98
FIVDILKFLDIGPDVTRVGLLQYG | 3.78
FIVDILPFLDIGPDVTRVGLLQYG | 2.12
FIVDILSFLDIGPDVTRVGLLQYG | 2.27
FIVDILTFLDIGPDVTRVGLLQYG | 3.12
FIVDILYFLDIGPDVTRVGLLQYG | 3.34
FIVDILQCLDIGPDVTRVGLLQYG | 2.21
FIVDILQDLDIGPDVTRVGLLQYG | 2
FIVDILQGLDIGPDVTRVGLLQYG | 4.33
FIVDILQILDIGPDVTRVGLLQYG | 2.65
FIVDILQKLDIGPDVTRVGLLQYG | 1.06
FIVDILQLLDIGPDVTRVGLLQYG | 2.43
FIVDILQNLDIGPDVTRVGLLQYG | 1.68
FIVDILQPLDIGPDVTRVGLLQYG | 2.96
FIVDILQQLDIGPDVTRVGLLQYG | 2.49

Variant | protein stability index
FIVDILQSLDIGPDVTRVGLLQYG | 2.12
FIVDILQTLDIGPDVTRVGLLQYG | 3.44
FIVDILQVLDIGPDVTRVGLLQYG | 2.94
FIVDILQFADIGPDVTRVGLLQYG | 1.79
FIVDILQFDDIGPDVTRVGLLQYG | 2.93
FIVDILQFEDIGPDVTRVGLLQYG | 1.72
FIVDILQFFDIGPDVTRVGLLQYG | 3.76
FIVDILQFKDIGPDVTRVGLLQYG | 1.84
FIVDILQFPDIGPDVTRVGLLQYG | 4.2
FIVDILQFQDIGPDVTRVGLLQYG | 2.47
FIVDILQFTDIGPDVTRVGLLQYG | 2.81
FIVDILQFLEIGPDVTRVGLLQYG | 3.48
FIVDILQFLLIGPDVTRVGLLQYG | 2.62
FIVDILQFLRIGPDVTRVGLLQYG | 3.54
FIVDILQFLTIGPDVTRVGLLQYG | 3.42
FIVDILQFLWIGPDVTRVGLLQYG | 2.66
FIVDILQFLDCGPDVTRVGLLQYG | 1.18
FIVDILQFLDGGPDVTRVGLLQYG | 3.02
FIVDILQFLDHGPDVTRVGLLQYG | 4.42
FIVDILQFLDKGPDVTRVGLLQYG | 3.5
FIVDILQFLDLGPDVTRVGLLQYG | 2.53

Reference: the supplement of paper PMC10567573
